Laboratory results taken from US9371520B2.

Target: purified native cellulosome of C. thermocellum ATCC 27405 (C. thermocellum ATCC 27405) (UniProt Q06851)

## BglA-CohII (chimaeric C. thermocellum β-glucosidase A fused to the type-II cohesin module of the Orf2p anchoring protein) (enzyme)
  hydrolysis of microcrystalline cellulose and pre-treated switchgrass (soluble reducing sugars): 2.68 fold

## wild-type (WT) BglA, β-glucosidase A from C. thermocellum, as cloned (enzyme)
  hydrolysis of microcrystalline cellulose and pre-treated switchgrass (soluble reducing sugars): 2.06 fold
